Results on 46 sequences are retold here after the Immune Epitope Database (IEDB).

Bounds are passed on as bounds.

One test deals with HLA-A*24:02. Briefly: IEDB peptide-MHC binding, purified MHC/competitive/fluorescence; ≥ and ≤ were set here for values at or beyond the usual limits of such assays.
In a further test the target is HLA-B*07:02. The experiment in a line: IEDB peptide-MHC binding, purified MHC/competitive/radioactivity; filed as Kd, often an IC50 or EC50 that approximates it; ≥ and ≤ were set here for values at or beyond the usual limits of such assays.
For the next test, the target named is HLA-B*35:01. Described as above.
A further test concerns the target HLA-B*51:01. The test is described as above.
For another test, the target named is HLA-B*53:01. Described as above.
The target of a further test is HLA-B*54:01. Described as above.
The target of the next test is HLA-A*30:01. Described as above.
Another test has as its target HLA-A*26:01. The description is as above.
The next test deals with HLA-A*01:01. The description is as above.
For another test, the target named is HLA-A*03:01. The description is as above.
The target in a further test is HLA-A*11:01. The test is described as above. The note with it: source organism: Vaccinia virus WR.
The next test has as its target HLA-A*31:01. Described as above. The settings on record: source organism: Vaccinia virus WR.
The target of a further test is HLA-A*33:01. Described as above. The settings on record: source organism: Vaccinia virus WR.
Another test has as its target HLA-A*68:01. The test is described as above. The settings on record: source organism: Vaccinia virus WR.
The target of test [1] is HLA-A*02:01. The experiment in a line: IEDB peptide-MHC binding, purified MHC/competitive/fluorescence; filed as Kd, often an IC50 or EC50 that approximates it; ≥ and ≤ were set here for values at or beyond the usual limits of such assays.
The target of test [2] is HLA-A*02:01. The experiment in a line: IEDB peptide-MHC binding, purified MHC/competitive/fluorescence; ≥ and ≤ were set here for values at or beyond the usual limits of such assays.
For the next test, the target named is HLA-A*02:02. Briefly: IEDB peptide-MHC binding, purified MHC/competitive/radioactivity; filed as Kd, often an IC50 or EC50 that approximates it; ≥ and ≤ were set here for values at or beyond the usual limits of such assays. The note with it: source organism: Vaccinia virus WR.
In a further test the target is HLA-A*02:03. The description is as above. The settings on record: source organism: Vaccinia virus WR.
The target of a further test is HLA-A*02:06. The test is described as above. The note with it: source organism: Vaccinia virus WR.
[3] abbreviates: source organism: Sudan ebolavirus.
Where [4] appears, read: source organism: Triticum aestivum.
[5] abbreviates: source organism: Vaccinia virus WR.
[6] abbreviates: source organism: Dengue virus 1 Brazil/97-11/1997.
[7] abbreviates: source organism: Dengue virus 3 Martinique/1243/1999.
[8] abbreviates: source organism: Zaire ebolavirus.
Where [9] appears, read: source organism: Dengue virus 4 Philippines/H241/1956.
Setting [10] is: source organism: Mammarenavirus lassaense.
Where [11] appears, read: source organism: Dengue virus 2 Jamaica/1409/1983.
Where [12] appears, read: source organism: Vaccinia virus Copenhagen.
[13] abbreviates: source organism: Dengue virus 4 Dominica/814669/1981.

In general, IC50 refers to the concentration at which inhibition is half-maximal. A high value points to weaker potency. For the sequence SFFVWVIIL, the IC50 with HLA-A*24:02 (setting [3]) was at least 72500 nM.

Broadly, the Kd is the constant that tells how readily two partners part at equilibrium. Take VPLVQQQQFL: the Kd with HLA-B*07:02 (setting [4]) was 8750 nM; in the test with HLA-B*35:01 (setting [4]), 16100 nM; in the test with HLA-B*51:01 (setting [4]) it was 5910 nM; with HLA-B*53:01 (setting [4]) it was 4820 nM; with HLA-B*54:01 (setting [4]), at least 69900 nM.

Regarding KTSFHIIFL, the Kd with HLA-A*30:01 (setting [5]) is 25 nM.

With VPDADPPIPY, the Kd is 2020 nM with HLA-B*07:02 (setting [5]); 142 nM with HLA-B*35:01 (setting [5]); at least 69600 nM with HLA-B*51:01 (setting [5]); 1650 nM with HLA-B*53:01 (setting [5]); 19300 nM with HLA-B*54:01 (setting [5]).

As for ETLGEKWKRQ, the Kd in the test with HLA-A*26:01 (setting [6]) stood at 12300 nM.

Regarding YTDRKWCFD, the Kd in the test with HLA-A*01:01 (setting [7]) was 597 nM.

In the case of TPNYMKLLV, the Kd is 51.3 nM with HLA-B*07:02 (setting [5]), 8.41 nM with HLA-B*35:01 (setting [5]), at least 77500 nM with HLA-B*51:01 (setting [5]) and 30.7 nM in the test with HLA-B*54:01 (setting [5]).

The sequence EWAFWETKK came in with an IC50 with HLA-A*24:02 (setting [8]) of 5980 nM.

Take RAKSPTRQS: in the test with HLA-A*30:01 (setting [5]), the Kd was 260 nM.

ITFLRVLSIP: in the test with HLA-A*30:01 (setting [9]), the Kd was 828 nM.

In the case of CPNCYDSVM, the Kd with HLA-B*07:02 (setting [10]) is 205 nM; with HLA-B*35:01 (setting [10]), 7.87 nM; in the test with HLA-B*51:01 (setting [10]), 5710 nM; in the test with HLA-B*53:01 (setting [10]) it was 79.5 nM; with HLA-B*54:01 (setting [10]), 4500 nM.

For the sequence EFLDYMPSM, the Kd with HLA-A*26:01 (setting [7]) came out at 16200 nM.

On to TFRERYSYK, for which the Kd in the test with HLA-A*03:01 (setting [5]) stood at 73.6 nM; with HLA-A*11:01 it was 43.7 nM; with HLA-A*30:01 (setting [5]), 0.885 nM; in the test with HLA-A*31:01 it was 14.6 nM; with HLA-A*33:01, 28.8 nM; with HLA-A*68:01 it was 127 nM.

Turning to KMRRERAAY, in the test with HLA-A*30:01 (setting [5]), the Kd turned out to be 3.04 nM.

As for RCLKPVILK, the Kd in the test with HLA-A*03:01 (setting [6]) stood at 156 nM; with HLA-A*30:01 (setting [6]) it was 220 nM.

DARIYSDPLA: in the test with HLA-A*30:01 (setting [11]), the Kd was 744 nM.

As for GQLASMVKL, the Kd with HLA-A*02:01 [1] (source organism: Escherichia coli 536) worked out at 78.2 nM.

Take KSRRLNLFS: in the test with HLA-A*30:01 (setting [5]), the Kd is 3.28 nM.

Consider HTIENSTAN, for which the Kd with HLA-A*26:01 (setting [7]) came to 6990 nM.

ICQLIIQAF yielded an IC50 in the test with HLA-A*24:02 (setting [8]) of 446 nM.

For STSSSYLYA, the Kd with HLA-A*30:01 (setting [12]) stood at 13.3 nM.

As for DTVTYKCPL, the Kd with HLA-A*26:01 (setting [13]) is 1260 nM.

With CTKHSKDFA, the dissociation constant Kd in the test with HLA-A*30:01 (setting [5]) was found to be 231 nM.

On to RDGVKRLEE, for which the IC50 in the test with HLA-A*24:02 (setting [8]) is at least 89800 nM.

Consider KGRRQYFYG, for which the Kd with HLA-A*30:01 (setting [5]) came to 2.85 nM.

With SINVEYRFL, the figures for the IC50 in the test with HLA-A*02:01 [2] (setting [5]) and with HLA-A*24:02 (setting [5]) were 27200 nM and 27700 nM, respectively.

AVSRGSAKLR: the Kd with HLA-A*30:01 (setting [11]) worked out at 1210 nM.

The sequence LVSIPRTNIV showed a Kd in the test with HLA-A*02:01 [1] (source organism: Variola virus) of 279 nM.

QVHAEQGLI: the IC50 in the test with HLA-A*24:02 (setting [8]) is 47000 nM. In other words, the double-digit micromolar range.

Consider EYVDYMPVM, for which, in the test with HLA-A*26:01 (setting [9]), the Kd is at least 21300 nM.

Consider KLIIDREVV, for which the IC50 in the test with HLA-A*24:02 (setting [12]) was at least 137000 nM. The sequence further gave a Kd with HLA-A*02:01 [1] (setting [5]) of 1790 nM.

In the case of RWGFRSGVP, the IC50 came out at 16400 nM with HLA-A*02:01 [2] (setting [3]) and 16700 nM with HLA-A*24:02 (setting [3]).

On to VTEEIAVQNW, for which the Kd with HLA-A*01:01 (setting [11]) is at least 38700 nM.

In the test with HLA-A*24:02 (setting [8]), PKAENTNTS yielded an IC50 of 61000 nM. In other words, the double-digit micromolar range.

As for FLGGNEVGKTY, in the test with HLA-A*01:01 (source organism: Homo sapiens), the Kd worked out at 198 nM.

Consider QGLIQYPTA, for which the IC50 was 46100 nM with HLA-A*02:01 [2] (setting [8]) and 12600 nM with HLA-A*24:02 (setting [8]).

As to LSRNKKPRI, the Kd in the test with HLA-A*30:01 (setting [6]) turned out to be 7690 nM.

On to ESALNDTWKI, for which the Kd with HLA-A*26:01 (source organism: Dengue virus 2 Peru/IQT2913/1996) was at least 69700 nM.

For the sequence LGADLDAVI, the figures for the IC50 in the test with HLA-A*02:01 [2] (setting [5]) and with HLA-A*24:02 (setting [5]) were 20500 nM and 7660 nM, respectively.

In the case of KKKTWLVHK, the Kd with HLA-A*30:01 (setting [9]) turned out to be 470 nM.

Take NSEQGGKAY: in the test with HLA-A*01:01 (setting [6]), the Kd was found to be 482 nM.

In the case of RVRNRVSTG, the Kd in the test with HLA-A*30:01 (setting [7]) came to 115 nM.

NSALTLHWF: in the test with HLA-A*01:01 (setting [13]), the Kd turned out to be 2320 nM.

YLSDSAINI showed a Kd in the test with HLA-A*02:01 [1] (setting [12]) of 1.3 nM.

For the sequence HIKTIAVSV, the Kd with HLA-A*02:02 was found to be 3080 nM; with HLA-A*02:03 it was 9.6 nM; with HLA-A*02:06, 1550 nM; in the test with HLA-A*30:01 (setting [5]) it was 66.8 nM.

As for ITVIDLDPIP, the Kd in the test with HLA-A*30:01 (setting [11]) turned out to be 295 nM.
